# B1: RNase I: RNase I (Promega), enzyme that catalyzes the hydrolysis of RNA; used to digest live bacteria (protein, UniProt P21338 24-268, looked up)
# Ribonuclease I: LALQAKQYGDFDRYVLALSWQTGFCQSQHDRNRNERDECRLQTETTNKADFLTVHGLWPGLPKSVAARGVDERRWMRFGCATRPIPNLPEARASRMCSSPETGLSLETAAKLSEVMPGAGGRSCLERYEYAKHGACFGFDPDAYFGTMVRLNQEIKESEAGKFLADNYGKTVSRRDFDAAFAKSWGKENVKAVKLTCQGNPAYLTEIQISIKADAINAPLSANSFLPQPHPGNCGKTFVIDKAGY
# Test system: PBMCs
# Assay: Cytokine secretion from PBMCs stimulated with nuclease-treated live C. acnes (ELISA)
# Assay type: cell-based, human
# Conditions: live C. acnes digested with nuclease at 37° C. for 1 hour, PBMCs stimulated 24 h
# Experimental: FIGS. 3A-3D: PBMCs were stimulated with untreated, heat-killed (HK), Rnase I, or Dnase I treated live CA(HL5PA1), CH (HL110PA4), LPS, or 19 kD (TLR1/2L) for 24 h. Cytokine secretions were measured by ELISA.
# Cells purification and culture. Whole blood was obtained from healthy donors who provided written informed consent (UCLA Institutional Review Board). PBMCs were isolated by Ficoll-Paque (Amersham Bioscience) density gradient centrifugation and cultured in RPMI 1640 (Gibco) supplemented with 10% fetal bovine serum (FBS) (Seradigm) at a density of 2.5×10^6/mL in a 24-well flat bottomed plate.
# Bacterial treatment. Live bacteria were heat-killed at 95° C. for 10 minutes and cooled on ice before addition of bacteria to cell culture. Live bacteria were digested using RNase I (Promega) or DNase I (Invitrogen) and incubated at 37° C. for 1 hour. Nucleases were inactivated with 0.1% SDS.
# Cytokine Quantification. Cell culture supernatants were harvested at 24 hours unless otherwise noted. Cytokines measured by sandwich ELISA using antibody pairs were as follows: IL-18, IL-1β, IFN-β (R&D Duoset), IFN-γ (BD), IL-6, IL-10, TNF-α (Invitrogen).
molecule,measurement,setting,value
B1,IFN-γ secretion from PBMCs,,eliminated
same,IL-6 secretion from PBMCs,,eliminated
same,IL-10 secretion from PBMCs,,eliminated
same,TNF-α secretion from PBMCs,,eliminated
same,IFN-γ secretion from PBMCs,listed as RNase,abrogated

# From US20220143153A1, “COMPOSITIONS AND METHODS FOR TREATING ACNE” (priority 2019, published 2022)
